Values quoted from earlier work, collected in publication PMC8712716.

Columns and labels:
TGF-beta2 (Homo sapiens) = TGF-beta2 (Homo sapiens) (UniProt P61812)
TGF-beta1 (Homo sapiens) = TGF-beta1 (Homo sapiens) (UniProt P01137)
NGF-beta (Homo sapiens) = NGF-beta (Homo sapiens) (UniProt P01138)
FGF-2 (Homo sapiens) = FGF-2 (Homo sapiens) (UniProt P09038)
GRP78 (Homo sapiens) = GRP78 (Homo sapiens) (UniProt P11021)
TNF-alpha (Homo sapiens) = TNF-alpha (Homo sapiens) (UniProt P01375)
Sequence of TNF-alpha (Homo sapiens) (P01375 77-233): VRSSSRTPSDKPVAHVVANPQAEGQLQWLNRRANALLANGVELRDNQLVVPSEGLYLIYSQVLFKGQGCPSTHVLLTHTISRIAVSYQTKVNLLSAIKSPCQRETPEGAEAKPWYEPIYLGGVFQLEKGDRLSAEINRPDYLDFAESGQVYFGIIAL

Sequence of alpha-2-macroglobulin (P01023 24-1474): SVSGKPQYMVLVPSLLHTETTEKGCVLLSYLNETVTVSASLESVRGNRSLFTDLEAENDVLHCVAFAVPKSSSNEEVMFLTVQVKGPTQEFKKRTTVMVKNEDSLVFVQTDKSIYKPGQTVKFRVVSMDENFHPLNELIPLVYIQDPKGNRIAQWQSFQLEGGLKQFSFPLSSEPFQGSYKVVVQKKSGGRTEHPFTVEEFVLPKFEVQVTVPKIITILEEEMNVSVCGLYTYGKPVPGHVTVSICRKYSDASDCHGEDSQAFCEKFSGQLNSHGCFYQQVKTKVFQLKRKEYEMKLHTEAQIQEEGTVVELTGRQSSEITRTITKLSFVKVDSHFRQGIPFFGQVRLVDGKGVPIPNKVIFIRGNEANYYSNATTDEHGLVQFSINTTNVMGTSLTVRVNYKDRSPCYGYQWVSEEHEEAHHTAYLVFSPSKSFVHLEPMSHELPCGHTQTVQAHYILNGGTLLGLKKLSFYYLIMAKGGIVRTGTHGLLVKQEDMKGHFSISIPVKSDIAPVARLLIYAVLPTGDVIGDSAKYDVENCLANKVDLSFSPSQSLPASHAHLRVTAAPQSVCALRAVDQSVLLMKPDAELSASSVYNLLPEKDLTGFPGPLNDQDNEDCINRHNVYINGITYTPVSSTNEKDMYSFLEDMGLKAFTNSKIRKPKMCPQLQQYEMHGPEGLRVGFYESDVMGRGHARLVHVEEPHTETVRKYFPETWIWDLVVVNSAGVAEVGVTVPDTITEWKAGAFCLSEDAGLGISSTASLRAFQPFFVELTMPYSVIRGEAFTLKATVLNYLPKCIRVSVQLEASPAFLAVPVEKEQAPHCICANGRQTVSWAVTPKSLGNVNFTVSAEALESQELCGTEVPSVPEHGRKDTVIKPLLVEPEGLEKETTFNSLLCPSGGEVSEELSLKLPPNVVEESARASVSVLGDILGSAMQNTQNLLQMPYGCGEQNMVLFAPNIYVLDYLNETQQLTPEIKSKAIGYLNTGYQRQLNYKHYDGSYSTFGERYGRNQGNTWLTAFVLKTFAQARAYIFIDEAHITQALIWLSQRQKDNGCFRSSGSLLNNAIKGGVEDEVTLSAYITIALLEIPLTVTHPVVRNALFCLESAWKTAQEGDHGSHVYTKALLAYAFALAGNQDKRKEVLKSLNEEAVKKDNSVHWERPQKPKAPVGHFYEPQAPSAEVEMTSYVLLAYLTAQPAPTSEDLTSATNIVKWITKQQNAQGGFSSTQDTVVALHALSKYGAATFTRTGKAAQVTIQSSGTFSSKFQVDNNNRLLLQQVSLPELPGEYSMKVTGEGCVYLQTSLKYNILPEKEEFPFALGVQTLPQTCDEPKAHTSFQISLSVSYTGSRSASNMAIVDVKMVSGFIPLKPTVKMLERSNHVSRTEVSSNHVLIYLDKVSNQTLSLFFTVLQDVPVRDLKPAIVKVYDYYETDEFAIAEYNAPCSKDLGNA
Sequence of FGF-2 (Homo sapiens) (P09038 143-288): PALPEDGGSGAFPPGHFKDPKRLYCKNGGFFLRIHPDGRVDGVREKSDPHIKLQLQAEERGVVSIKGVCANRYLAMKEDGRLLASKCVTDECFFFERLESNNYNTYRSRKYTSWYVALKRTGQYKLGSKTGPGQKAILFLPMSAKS
Sequence of TGF-beta2 (Homo sapiens) (P61812 303-414): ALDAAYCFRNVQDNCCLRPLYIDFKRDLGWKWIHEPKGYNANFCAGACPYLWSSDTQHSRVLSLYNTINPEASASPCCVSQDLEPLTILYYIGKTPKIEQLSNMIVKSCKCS
Sequence of TGF-beta1 (Homo sapiens) (P01137 279-390): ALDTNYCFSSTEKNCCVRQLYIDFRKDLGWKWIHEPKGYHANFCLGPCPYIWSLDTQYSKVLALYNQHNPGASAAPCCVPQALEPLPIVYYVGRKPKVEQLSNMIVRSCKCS
Sequence of NGF-beta (Homo sapiens) (P01138 122-241): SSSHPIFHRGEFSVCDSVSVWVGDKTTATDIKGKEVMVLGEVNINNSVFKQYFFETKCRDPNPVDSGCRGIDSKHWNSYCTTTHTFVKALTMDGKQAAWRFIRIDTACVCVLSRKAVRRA
Sequence of GRP78 (Homo sapiens) (P11021 19-654): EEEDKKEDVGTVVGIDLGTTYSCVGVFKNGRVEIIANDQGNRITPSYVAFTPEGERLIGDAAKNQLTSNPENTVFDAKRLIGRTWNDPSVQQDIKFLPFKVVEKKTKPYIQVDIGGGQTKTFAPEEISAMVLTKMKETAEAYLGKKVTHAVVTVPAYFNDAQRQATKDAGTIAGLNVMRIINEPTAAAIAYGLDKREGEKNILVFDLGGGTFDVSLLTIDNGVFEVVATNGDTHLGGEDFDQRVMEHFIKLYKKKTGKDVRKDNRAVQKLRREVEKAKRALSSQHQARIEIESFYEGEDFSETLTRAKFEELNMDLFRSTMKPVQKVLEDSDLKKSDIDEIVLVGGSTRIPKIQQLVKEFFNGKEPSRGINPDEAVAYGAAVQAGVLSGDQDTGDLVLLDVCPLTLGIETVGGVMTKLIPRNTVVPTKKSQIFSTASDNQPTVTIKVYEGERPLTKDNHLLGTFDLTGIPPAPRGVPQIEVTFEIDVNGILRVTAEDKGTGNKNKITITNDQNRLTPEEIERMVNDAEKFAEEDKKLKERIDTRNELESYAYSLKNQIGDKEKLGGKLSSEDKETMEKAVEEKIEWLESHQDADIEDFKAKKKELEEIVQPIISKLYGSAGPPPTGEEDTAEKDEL

- Kd (TGF-beta2 (Homo sapiens)): 12 nM
- Kd (TGF-beta1 (Homo sapiens)): 80 nM
- Kd (NGF-beta (Homo sapiens)): 110 nM
- Kd (FGF-2 (Homo sapiens)): 590 nM
- Kd (GRP78 (Homo sapiens)): 0.15 nM
- Kd (TNF-alpha (Homo sapiens)): > 750 nM
Substance: alpha-2-macroglobulin (from UniProt P01023)
